From paper PMC3948114

Target: HLA-B*27:05-KK10 tetramer
Assay: tetramer staining of transfected HEK293 cells
Settings: 0.2 μg tetramer; parent: est. 100; read off a plot

Row | Substance | percent of parent
1 | FLAG-tagged 3DL1*001 (from UniProt P43629) A167G | 76 % of ·001
2 | FLAG-tagged 3DL1*001 (from UniProt P43629) D230A | 30 % of ·001
3 | FLAG-tagged 3DL1*001 (from UniProt P43629) E282A | 22 % of ·001
4 | FLAG-tagged 3DL1*001 (from UniProt P43629) E282Q | 44 % of ·001
5 | FLAG-tagged 3DL1*001 (from UniProt P43629) L166A | 180 % of ·001
6 | FLAG-tagged 3DL1*001 (from UniProt P43629) L166V | 20 % of ·001
7 | FLAG-tagged 3DL1*001 (from UniProt P43629) M165A | 52 % of ·001
8 | FLAG-tagged 3DL1*001 (from UniProt P43629) P199A | 10 % of ·001
9 | FLAG-tagged 3DL1*001 (from UniProt P43629) Y200A | 8 % of ·001
10 | FLAG-tagged 3DL1*001 (from UniProt P43629) Y200F | 36 % of ·001
